Publication PMC6201868, “Significance of a histone-like protein with its native structure for the diagnosis of asymptomatic tuberculosis” (PLoS ONE, 2018)

Assays:
[1] = target: rFull-MDP1 (full-length HIS-tagged recombinant mycobacterial DNA-binding protein 1) (M. tuberculosis) (UniProt P9WMK7); test: cross-linking
[2] = target: the molecule itself; test: […], buffer pH 7.0 with 300 mM NaCl, […]

Molecule	stoichiometry N [1]	stoichiometry N [2]
rFull-MDP1 (full-length HIS-tagged recombinant mycobacterial DNA-binding protein 1) (from UniProt P9WMK7 1-216) (natural protein)	2	
rN-MDP1 (amino acids 1-100 of mycobacterial DNA-binding protein 1, histidine-tagged) (domain or fragment, also called N-terminal half of MDP1) MGMNKAELIDVLTQKLGSDRRQATAAVENVVDTIVRAVHKGDSVTITGFGVFEQRRRAARVARNPRTGETVKVKPTSVPAFRPGAQFKAVVSGAQRLPAE		2
